Assay results reported in patent US20230242662A1 (BIOATLA, published 2023).

Columns and labels:
[1] = molecular target: T1, cyno CD46 expressed on 293 cells (cynomolgus); assay: FACS, 293 cells expressing cyno CD46, pH 6.0
T1 construct: whole, on cells; The construct on the cells is not described; also called HEK 293 cells expressing cyno CD46
Protocol: (§1) A similar FACS analysis was also carried out using 293 cells expressing cyno CD46. […] The EC50 values for binding to the 293 cells expressing cyno CD46 by the conditionally active anti-CD46 antibodies are summarized in Table 6.

[2] = molecular target: T1, cyno CD46 expressed on 293 cells; assay: FACS, 293 cells expressing cyno CD46, pH 7.4
Protocol: as §1

huCD46-His [3] = molecular target: T2, huCD46-His (human, UniProt P15529 35-343); assay: SPR, huCD46-His immobilised, antibody as analyte, pH 6.0
T2 construct: extracellular domain; Immobilised by amine coupling on the SPR chip; It may be the same protein as the ELISA antigen; also called Human CD46-His; human CD46; not shown: His tag
T2 sequence (looked up): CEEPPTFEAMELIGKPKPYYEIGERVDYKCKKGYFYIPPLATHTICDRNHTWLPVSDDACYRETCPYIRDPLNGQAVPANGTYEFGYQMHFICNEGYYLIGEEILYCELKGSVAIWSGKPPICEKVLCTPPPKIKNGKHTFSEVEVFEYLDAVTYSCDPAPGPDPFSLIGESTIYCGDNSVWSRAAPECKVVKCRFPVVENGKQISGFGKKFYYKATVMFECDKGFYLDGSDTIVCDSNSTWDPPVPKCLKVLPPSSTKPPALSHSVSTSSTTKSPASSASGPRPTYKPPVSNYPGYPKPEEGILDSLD
Protocol: (§2) Binding kinetics of anti-CD46 antibodies were measured by surface plasmon resonance on a SPR2/4 instrument (Sierra Sensors, Hamburg, Germany) and flat amine sensor chips. The SPR sensor contained four flow cells (FC1-FC4), each of which can be addressed individually or in groups. huCD46-His was immobilized in FC2, and cynoCD46-His was immobilized in FC4. No protein was immobilized in FC1 and FC3 which were used as control surfaces for FC2 and FC4, respectively.
(§3) All injections were done at a flow rate of 25 μL/min and 25° C. The sensor surface was activated with 1-ethyl-3-(3-dimethylaminopropyl)-carbodiimide (EDC) and N-hydroxysuccinimide (NHS) (200 mM/50 mM) for 480 seconds. Human CD46-His (2 μg/mL in 10 mM NaAc, pH5.0) was injected for 480s and the surface was inactivated by injecting 1M ethanolamine-HCl for 480s. cynoCD46-His was immobilized using the same conditions as described for huCD46-His, except that it was diluted into 10 mM NaAc buffer pH4.5. The control surface was activated and deactivated using the same conditions, but without injecting protein. PBST buffer (PBS pH7.4 with 0.05% TWEEN20™) was used as running buffer for the surface preparation. The running solution was switched to PBST with 30 mM sodium bicarbonate with the pH adjusted as indicated in the figures before the analyte injections. The instrument was equilibrated with the running solution for one hour before the first analyte injection.
(§4) The off-rate was measured for 360 s. The chip surface was regenerated after each cycle of interaction by injecting 6 μL of 10 mM glycine (pH 2.0). Flow cells 1 and 3 without immobilized protein were used as control surfaces for reference subtraction.

huCD46-His [4] = molecular target: T2, huCD46-His; assay: SPR, huCD46-His immobilised, antibody as analyte, pH 6.5
Protocol: as §2, §3, §4

huCD46-His [5] = molecular target: T2, huCD46-His; assay: SPR, huCD46-His immobilised, antibody as analyte, pH 7.4
Protocol: as §2, §3, §4

cynoCD46-His [6] = molecular target: T3, cynoCD46-His (cynomolgus, UniProt A0A2K5WCL8 35-328); assay: SPR, cynoCD46-His immobilised, antibody as analyte, pH 6.0
T3 construct: extracellular domain; Immobilised by amine coupling on the SPR chip; not shown: His tag
T3 sequence: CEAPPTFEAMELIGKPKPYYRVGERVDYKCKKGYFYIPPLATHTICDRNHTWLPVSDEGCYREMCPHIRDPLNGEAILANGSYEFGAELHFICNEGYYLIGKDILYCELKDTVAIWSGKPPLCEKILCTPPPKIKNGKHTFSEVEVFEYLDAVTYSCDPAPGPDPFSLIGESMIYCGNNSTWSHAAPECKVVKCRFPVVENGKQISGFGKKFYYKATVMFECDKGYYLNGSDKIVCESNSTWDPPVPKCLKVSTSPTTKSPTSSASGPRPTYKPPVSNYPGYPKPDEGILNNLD
Protocol: as §2, §3, §4

cynoCD46-His [7] = molecular target: T3, cynoCD46-His; assay: SPR, cynoCD46-His immobilised, antibody as analyte, pH 6.5
Protocol: as §2, §3, §4

cynoCD46-His [8] = molecular target: T3, cynoCD46-His; assay: SPR, cynoCD46-His immobilised, antibody as analyte, pH 7.4
Protocol: as §2, §3, §4

[9] = molecular target: T4, recombinant cyno CD46 antigen (cynomolgus, UniProt A0A2K5WCL8 35-328); assay: ELISA, coated cyno CD46; EC50 at pH 7.4 over EC50 at pH 6.0
T4 construct: extracellular domain; Plate-coated antigen of the ELISA; also called cynomolgus CD46 extracellular domain
T4 sequence: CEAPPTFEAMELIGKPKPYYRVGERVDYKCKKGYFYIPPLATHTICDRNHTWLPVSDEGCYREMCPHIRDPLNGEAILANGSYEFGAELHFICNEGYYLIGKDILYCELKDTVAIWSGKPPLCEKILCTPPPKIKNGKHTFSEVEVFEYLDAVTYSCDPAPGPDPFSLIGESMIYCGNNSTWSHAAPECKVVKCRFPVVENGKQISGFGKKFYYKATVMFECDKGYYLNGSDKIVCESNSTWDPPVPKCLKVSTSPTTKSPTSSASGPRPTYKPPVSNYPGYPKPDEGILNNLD
Protocol: The binding activities of conditionally active anti-CD46 antibodies to cyno CD46 were measured by ELISA and are shown in FIGS. 3-4. The EC50 values for binding to the cyno CD46 at pH 6.0 and pH 7.4 for the conditionally active anti-CD46 antibodies are summarized in Table 2.
[…] Cover with sealing film and place the plate onto a plate shaker set to 50 rpm for 60 minutes at room temperature. [0351] 6) Decant plates and tap out residual liquid on a stack of paper towels. [0352] 7) Serially dilute test articles in 3-fold dilutions starting at 3000 ng/mL in pH 6.0 or pH 7.4 ELISA incubation buffer. [0353] 8) Add 100 μL/well of diluted test articles to the plates [0354] 9) Cover with sealing film and place the plates onto a plate shaker set to 50 rpm for 60 minutes at room temperature. […] 10) Decant plates and tap out residual liquid on a stack of paper towels. [0356] 11) Wash wells three times by dispensing 200 μL of pH 6.0 or pH 7.4 ELISA wash buffer to the wells and completely aspirate the contents. [0357] 12) Dilute the HRP secondary antibody at 1:2500 in pH 6.0 or pH 7.4 ELISA incubation buffer. [0358] 13) Add 100 μL HRP secondary antibody diluted in pH 6.0 or pH 7.4 ELISA incubation buffer to each well [0359] 14) Cover with sealing film and place the plates onto a plate shaker set to 50 rpm for 60 minutes at room temperature. [0360] 15) Decant plates and tap out residual liquid on a stack of paper towels. [0361] 16) Wash wells three times by dispensing 200 μL of pH 6.0 or pH 7.4 ELISA wash buffer to the wells and completely aspirate the contents. [0362] 17) Dispense 50 μL per well of the TMB substrate solution into all wells of the plates. Incubate at room temperature for about 2 minutes 15 seconds or 2 minutes. […] 18) Add 50 μL per well of 1N HCl into all wells of the plates. Read plates at 450 nm using PerkinElmer, EnSpire 2300 Multilabel Reader.

[10] = molecular target: T1, cyno CD46 expressed on 293 cells; assay: FACS, 293 cells expressing cyno CD46; EC50 at pH 7.4 over EC50 at pH 6.0
Protocol: as §1

| EC50 [1] [µg/mL] | EC50 [2] [µg/mL] | Kd (huCD46-His [3]) [nM] | koff (huCD46-His [3]) [s⁻¹] | kon (huCD46-His [3]) [M⁻¹ s⁻¹] | Kd (huCD46-His [4]) [nM] | koff (huCD46-His [4]) [s⁻¹] | kon (huCD46-His [4]) [M⁻¹ s⁻¹] | Kd (huCD46-His [5]) [nM] | koff (huCD46-His [5]) [s⁻¹] | kon (huCD46-His [5]) [M⁻¹ s⁻¹] | Kd (cynoCD46-His [6]) [nM] | koff (cynoCD46-His [6]) [s⁻¹] | kon (cynoCD46-His [6]) [M⁻¹ s⁻¹] | Kd (cynoCD46-His [7]) [nM] | koff (cynoCD46-His [7]) [s⁻¹] | kon (cynoCD46-His [7]) [M⁻¹ s⁻¹] | Kd (cynoCD46-His [8]) [nM] | koff (cynoCD46-His [8]) [s⁻¹] | kon (cynoCD46-His [8]) [M⁻¹ s⁻¹] | other results | Binder |
| --- | --- | --- | --- | --- | --- | --- | --- | --- | --- | --- | --- | --- | --- | --- | --- | --- | --- | --- | --- | --- | --- |
| 0.104 | 1.15 | 2.36 | 0.000915 | 388000 | 1.29 | 0.000736 | 571000 | 0.89 | 0.000778 | 874000 | 2.55 | 0.00255 | 1e+06 | 2.33 | 0.00198 | 849000 | 5.47 | 0.00242 | 442000 | ratio (ph 7.4/pH 6.0) [9]: 11; Ratio (pH 7.4/6.0) [10]: 11 | BAP133-2-03-03-SL (antibody, V domains shown, the killing assays used the ADC form; also called BAP133-02-03-03-SL; CPE hit BAP133-2-03-03-SL) VH: EVQLVESGGGLVQPGGSLRLSCAASGGSVSSYDISWIRQSPSRGLEWLGVIWTDGGTNYNSAFMSRFTISRDDSKNTAYLQMNSLKTEDTAVYYCERVYDGYPWFAYWGQGTLVTVSS VL: AIQLTQSPSSLSASVGDRVTITCRASQGISNYLNWYLQKPGQSPQLLIYYTSSLHSGVPDRFSGSGSGTDFTLKISRVEAEDVGVYYCQQYIKLPWTFGQGTKVEIK |
| 0.114 | 0.958 | 0.991 | 0.00113 | 1.14e+06 | 1.77 | 0.00123 | 696000 | 3.99 | 0.00154 | 385000 | 0.465 | 0.000757 | 1.63e+06 | 0.558 | 0.000662 | 1.19e+06 | 1.29 | 0.000893 | 690000 | ratio (ph 7.4/pH 6.0) [9]: 9.2; Ratio (pH 7.4/6.0) [10]: 8.4 | BA-133-04-01 (antibody, V domains shown, also called CPE hit BA133-04-01) VH: EVQLVESGGGLVQPGGSLRLSCAASGGSVSSYDISWIRQSPSRGLEWLGVIWTDGGTNYNSAFMSRFTISRDDSKNTAYLQMNSLKTEDTAVYYCERVYDGYPWFAYWGQGTLVTVSS VL: AIQLTQSPSSLSASVGDRVTITCRASQWISNYLNWYLQKPGQSPQLLIYYTSSLHSGVPDRFSGSGSGTDFTLKISRVEAEDVGVYYCQQYIKLPWTFGQGTKVEIK |
| 0.132 | 1.37 | 2.33 | 0.00143 | 611000 | 2.31 | 0.00127 | 547000 | 4.17 | 0.00174 | 417000 | 0.519 | 0.000835 | 1.61e+06 | 0.683 | 0.000943 | 1.38e+06 | 1.06 | 0.000904 | 852000 | ratio (ph 7.4/pH 6.0) [9]: 9; Ratio (pH 7.4/6.0) [10]: 10.4 | BA-133-04-02 (antibody, V domains shown, also called CPE hit BA133-04-02) VH: EVQLVESGGGLVQPGGSLRLSCAASGGSVSSYDISWIRQSPSRGLEWLGVIWTDGGTNYNSAFMSRFTISRDDSKNTAYLQMNSLKTEDTAVYYCERVYDGYPWFAYWGQGTLVTVSS VL: AIQLTQSPSSLSASVGDRVTITCRASQGIANYLNWYLQKPGQSPQLLIYYTSSLHSGVPDRFSGSGSGTDFTLKISRVEAEDVGVYYCQQYIKLPWTFGQGTKVEIK |
| 0.0336 | 0.0493 | 2.32 | 0.00158 | 682000 | 2.15 | 0.00133 | 621000 | 2.13 | 0.00119 | 555000 | 0.795 | 0.00115 | 1.45e+06 | 0.778 | 0.00117 | 1.51e+06 | 0.905 | 0.0011 | 1.21e+06 | ratio (ph 7.4/pH 6.0) [9]: 1.33; Ratio (pH 7.4/6.0) [10]: 1.5 | Benchmark (BM) BA-133-00-01 (antibody, V domains shown, the killing assays used the ADC form; Conjugation site and payload are not described; also called BM (bench mark)) VH: QVQLQESGPGLVKPSETLSLTCTVSGGSVSSYDISWIRQPPGKGLEWIGVIWTDGGTNYNSAFMSRVTISVDTSKNQFSLKLSSVTAADTAVYYCARVYDGYPWFAYWGQGTLVTVSS VL: DIQMTQSPSSLSASVGDRVTITCRASQGISNYLNWYQQKPGKAPKLLIYYTSSLHSGVPSRFSGSGSGTDFTLTISSLQPEDFATYYCQQYIKLPWTFGGGTKLEIKR |
